Reference: PMC3906126 (Biochemistry, 2013)

Key:
Assay in all cases: ITC
[1] = target: T1, WW1 domain of WWOX (residues 16–50) (human, UniProt Q9NZC7 16-50)
T1 chain (looked up): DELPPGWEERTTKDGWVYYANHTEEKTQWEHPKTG

[2] = target: T2, WW1–WW2 tandem module of WWOX (residues 16–91) (human, UniProt Q9NZC7 16-91)
T2 sequence (looked up): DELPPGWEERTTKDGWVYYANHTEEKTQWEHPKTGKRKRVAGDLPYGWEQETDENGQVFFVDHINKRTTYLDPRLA

[3] = target: WW2W domain of WWOX (WW2 domain, residues 57–91, with the Y85W substitution) (human, UniProt Q9NZC7 57-91, Y85W)
Chain of WW2W domain of WWOX (WW2 domain, residues 57–91, with the Y85W substitution) (Q9NZC7 57-91 Y85W): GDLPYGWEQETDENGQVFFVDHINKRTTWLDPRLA

Binder: FNIPPPIYTSRA [ErbB4_PY1 peptide (12-mer spanning the PY1 PPXY motif of the ICD of ErbB4)]
- Kd [1]: 383 µM
- dH [1]: -6.88 kcal/mol
- Kd [2]: 170 µM
- dH [2]: -7.25 kcal/mol
- Kd [3]: 680 µM
- dH [3]: -4.74 kcal/mol

Binder: GHSPPPAYTPMS [ErbB4_PY2 peptide (12-mer spanning the PY2 PPXY motif of the ICD of ErbB4)]
- Kd [1]: 362 µM
- dH [1]: -3.66 kcal/mol
- Kd [2]: 175 µM
- dH [2]: -4.88 kcal/mol
- Kd [3]: 620 µM
- dH [3]: -8.08 kcal/mol
